Measured values reported in US20230348881.

B1: human MMP12 (matrix metalloproteinase-12) (protein)
chain: GPVWRKHYITYRINNYTPDMNREDVDYAIRKAFQVWSNVTPLKFSKINTGMADILVVFARGAHGDFHAFDGKGGILAHAFGPGSGIGGDAHFDEDEFWTTHSGGTNLFLTAVHEIGHSLGLGHSSDPKAVMFPTYKYVDINTFRLSADDIRGIQSLYG
B2: human MMP7 (protein)
chain: YSLFPNSPKWTSKVVTYRIVSYTRDLPHITVDRLVSKALNMWGKEIPLHFRKVVWGTADIMIGFARGAHGDSYPFDGPGNTLAHAFAPGTGLGGDAHFDEDERWTDGSSLGINFLYAATHELGHSLGMGHSSDPNAVMYPTYGNGDPQNFKLSQDDIKGIQKLYGKRSNSRKK

How the values were obtained:
[1] = biological target: Mutant 3, modified PPE proprotein with the MMP12 cleavage site, balanced (SEQ ID NO: 10)
Mutant 3, modified PPE proprotein with the MMP12 cleavage site, balanced (SEQ ID NO: 10), sequence (chain, as listed by the source mutant): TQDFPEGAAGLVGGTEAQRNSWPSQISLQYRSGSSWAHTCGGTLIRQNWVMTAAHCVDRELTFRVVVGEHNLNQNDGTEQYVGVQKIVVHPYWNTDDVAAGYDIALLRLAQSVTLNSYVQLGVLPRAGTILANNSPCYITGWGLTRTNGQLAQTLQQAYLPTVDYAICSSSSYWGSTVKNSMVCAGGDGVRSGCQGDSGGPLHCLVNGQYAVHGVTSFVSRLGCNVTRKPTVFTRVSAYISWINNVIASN

[2] = biological target: exemplary modified PPE proproteins
[3] = biological target: wild-type PPE proprotein as used in Example 2
wild-type PPE proprotein as used in Example 2, sequence (chain, as listed by the source): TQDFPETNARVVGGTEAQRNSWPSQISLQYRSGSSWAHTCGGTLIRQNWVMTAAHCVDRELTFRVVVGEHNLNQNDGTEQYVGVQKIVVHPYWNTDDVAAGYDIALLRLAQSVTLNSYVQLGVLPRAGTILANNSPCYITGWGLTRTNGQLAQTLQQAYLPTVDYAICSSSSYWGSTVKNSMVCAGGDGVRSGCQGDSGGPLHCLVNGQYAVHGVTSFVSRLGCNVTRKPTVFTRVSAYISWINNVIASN

[4] = biological target: Mutant 2, modified PPE proprotein with the MMP12 cleavage site, PPE optimized (SEQ ID NO: 9)
Mutant 2, modified PPE proprotein with the MMP12 cleavage site, PPE optimized (SEQ ID NO: 9), sequence (chain, as listed by the source mutant): as the sequence (chain, as listed by the source) above, with T7G, N8A, R10G counted along it

Protein | protease cleavage by SDS-PAGE and Coomassie blue staining [1] | catalytic activity after protease digestion (colorimetric substrate assay), FIG. 4B [2] | catalytic activity after protease digestion (colorimetric substrate assay, N-Methoxysuccinyl-Ala-Ala-Pro-Val p-nitroanilide), FIG. 4A [2] | catalytic activity after protease digestion (colorimetric substrate assay), FIG. 4B [3] | protease cleavage by SDS-PAGE and Coomassie blue staining [4]
B1 | the MMP12 protease cleaved the exemplary modified PPE proteins designated as ... Mutant 3 (3B) | catalytically-active after incubation with MMP12 | catalytically-active after incubation by MMP12, relative to the activity of the native PPE as a control | catalytically-inactive after incubation with MMP12 or no protease | the MMP12 protease cleaved the exemplary modified PPE proteins designated as Mutant 2 (3A)
B2 | – | partially-catalytically-active after incubation with MMP7 | – | – | –
